# Reference: patent publication US20240279325A1 (Chugai, published 2024)
# Substitutions are numbered along the chain they refer to.
# T1: mouse FcγRIV (mouse, UniProt A0A0B4J1G0 21-203)
# T1 construct: also called mFcγRIV; not shown: purification tag of the soluble receptor (probably a His tag)
# T1 sequence: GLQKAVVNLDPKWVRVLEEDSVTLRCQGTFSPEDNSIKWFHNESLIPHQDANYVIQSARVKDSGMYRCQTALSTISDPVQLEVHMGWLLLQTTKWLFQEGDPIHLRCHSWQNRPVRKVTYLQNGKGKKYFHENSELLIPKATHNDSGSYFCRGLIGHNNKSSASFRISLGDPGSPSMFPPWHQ
# T2: mouse FcγRI (mouse, UniProt P26151 25-297)
# T2 construct: extracellular domain; also called mFcγRI
# T2 sequence (looked up): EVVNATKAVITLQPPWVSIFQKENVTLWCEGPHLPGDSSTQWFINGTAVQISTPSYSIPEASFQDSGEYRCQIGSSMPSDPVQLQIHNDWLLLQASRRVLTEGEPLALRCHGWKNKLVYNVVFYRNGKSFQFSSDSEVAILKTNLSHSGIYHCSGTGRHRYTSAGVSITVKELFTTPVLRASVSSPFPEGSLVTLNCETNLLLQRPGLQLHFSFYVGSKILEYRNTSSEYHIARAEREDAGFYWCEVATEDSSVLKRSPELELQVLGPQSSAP
# T3: human FcγRIIa type R (allotype R131) extracellular domain with C-terminal His tag (human, UniProt P12318 34-217)
# T3 construct: extracellular domain; also called FcγRIIaR; not shown: His tag at the C terminus
# T3 sequence (looked up): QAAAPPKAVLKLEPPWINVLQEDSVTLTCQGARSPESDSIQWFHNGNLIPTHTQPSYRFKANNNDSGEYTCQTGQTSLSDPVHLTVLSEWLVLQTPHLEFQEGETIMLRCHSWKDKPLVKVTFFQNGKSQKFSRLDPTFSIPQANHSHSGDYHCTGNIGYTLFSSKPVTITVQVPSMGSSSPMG
# T4: human FcγRIIa type H (allotype H131) extracellular domain with C-terminal His tag (human, UniProt P12318 34-217)
# T4 construct: extracellular domain; also called FcγRIIaH; not shown: His tag at the C terminus
# T4 sequence (looked up): T3 sequence (looked up) with R134H
# T5: FcγRIIb extracellular domain with C-terminal His tag (human, UniProt P31994 43-217)
# T5 construct: extracellular domain
# T5 sequence (looked up): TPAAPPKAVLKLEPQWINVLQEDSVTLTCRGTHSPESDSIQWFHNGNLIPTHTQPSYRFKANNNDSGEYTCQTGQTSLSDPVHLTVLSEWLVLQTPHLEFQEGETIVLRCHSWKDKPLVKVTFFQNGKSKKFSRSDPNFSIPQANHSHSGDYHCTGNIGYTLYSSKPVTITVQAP
# T6: FcγRIIa type R (allotype R131) extracellular domain with C-terminal His tag (human, UniProt P12318 34-217)
# T6 construct: extracellular domain; also called FcγRIIaR; FcγRIIa R type
# T6 sequence (looked up): T3 sequence (looked up)
# T7: FcγRIIa type H (allotype H131) extracellular domain with C-terminal His tag (human, UniProt P12318 34-217)
# T7 construct: extracellular domain; also called FcγRIIaH; FcγRIIa H type
# T7 sequence (looked up): T3 sequence (looked up) with R134H
# T8: human FcγRIIa type H (allotype H131) extracellular domain with C-terminal His tag (human, UniProt P12318 34-217)
# T8 construct: also called FcγRIIaH
# T8 sequence: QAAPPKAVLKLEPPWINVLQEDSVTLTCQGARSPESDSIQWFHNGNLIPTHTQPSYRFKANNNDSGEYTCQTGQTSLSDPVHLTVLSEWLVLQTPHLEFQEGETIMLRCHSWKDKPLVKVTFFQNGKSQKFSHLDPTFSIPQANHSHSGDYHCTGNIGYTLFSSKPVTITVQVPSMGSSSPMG
# B1: VH3/L(WT)-mIgG1-mF44 (antibody)
# heavy: QVQLQESGPGLVKPSETLSLTCAVSGHSISHDHAWSWVRQPPGEGLEWIGFISYSGITNYNPSLQGRVTISRDNSKNTLYLQMNSLRAEDTAVYYCARSLARTTAMDYWGEGTLVTVSSAKTTPPSVYPLAPGSAAQTNSMVTLGCLVKGYFPEPVTVTWNSGSLSSGVHTFPAVLQSDLYTLSSSVTVPSSTWPSETVTCNVAHPASSTKVDKKIVPRDCGCKPCICTVPEVSSVFIFPPKPKDVLTITLTPKVTCVVVDISKDDPEVQFSWFVDDVEVHTAQTQPREEQFNSTFRSVSELPIMHQDWLNGKEFKCRVNSADFPAPIEKTISKTKGRPKAPQVYTIPPPKEQMAKDKVSLTCMITDFFPEDITVEWQWNGQPAENYKNTQPIMDTDGSYFVYSKLNVQKSNWEAGNTFTCSVLHEGLHNHHTEKSLSHSPGK
# light: not shown
# notes: copies: 2 + 2
# B2: VH3/L(WT)-mIgG1 (antibody)
# heavy: B1 heavy with D323A
# light: not shown
# notes: mouse IgG1 constant region; copies: 2 + 2
# B3: VH3/L(WT)-mIgG1-mF46 (antibody)
# heavy: B1 heavy with S235D
# light: not shown
# notes: copies: 2 + 2
# B4: IL6R-BP183/IL6R-L (antibody, human IgG1, kappa, name in EU numbering)
# heavy: QVQLQESGPGLVKPSETLSLTCAVSGHSISHDHAWSWVRQPPGEGLEWIGFISYSGITNYNPSLQGRVTISRDNSKNTLYLQMNSLRAEDTAVYYCARSLARTTAMDYWGEGTLVTVSSASTKGPSVFPLAPSSKSTSGGTAALGCLVKDYFPEPVTVSWNSGALTSGVHTFPAVLQSSGLYSLSSVVTVPSSSLGTQTYICNVNHKPSNTKVDKKVEPKSCDKTHTCPPCPAPDYLGGDSVFLFPPKPKDTLMISRTPEVTCVVVDVSHEDGEVKFNWYVDGVEVHNAKTKPREEQYNSTYRVVSVLTVLHQDWLNGKEYKCKVSNAALPKPIEKTISKAKGQPREPQVYTLPPSRDELTKNQVSLTCLVKGFYPSDIAVEWESNGQPENNYKTTPPVLDSDGSFFLYSKLTVDKSRWQQGNVFSCSVMHEALHNHYTQESLSLSP
# light: not shown
# notes: EU numbering; copies: 2 + 2
# B5: IL6R-BP208/IL6R-L (antibody, human IgG1, kappa, name in EU numbering)
# heavy: B4 heavy with Y236L, G239D, H270D, A328K, K332R
# light: not shown
# notes: EU numbering; copies: 2 + 2
# B6: IL6R-BP488/IL6R-L (antibody, human IgG1, kappa, name in EU numbering)
# heavy: B4 heavy with Y236L, G239D, V266I, S269A, H270E, Y298D, A328K, K332R
# light: not shown
# notes: copies: 2 + 2
# B7: IL6R-BP210/IL6R-L (antibody, human IgG1, kappa, name in EU numbering)
# heavy: B4 heavy with D235E, Y236L, G239D, H270D, A328K, K332R
# light: not shown
# notes: EU numbering; copies: 2 + 2
# B8: IL6R-BP456/IL6R-L (antibody, human IgG1, kappa, name in EU numbering)
# heavy: B4 heavy with Y236L, G239D, S269A, H270E, A328K, K332R, P398M
# light: not shown
# notes: copies: 2 + 2
# B9: IL6R-BP234/IL6R-L (antibody, human IgG1, kappa, name in EU numbering)
# heavy: B4 heavy with G239D, S269Q, H270D, Y298D, A328D
# light: not shown
# notes: EU numbering; copies: 2 + 2
# B10: IL6R-BP238/IL6R-L (antibody, human IgG1, kappa, name in EU numbering)
# heavy: B4 heavy with G239D, H270D, Y298D, K332R
# light: not shown
# notes: EU numbering; copies: 2 + 2
# B11: IL6R-BP241/IL6R-L (antibody, human IgG1, kappa, name in EU numbering)
# heavy: B4 heavy with Y236L, G239D, H270D, A328D, K332R
# light: not shown
# notes: EU numbering; copies: 2 + 2
# B12: IL6R-BP185/IL6R-L (antibody, human IgG1, kappa, name in EU numbering)
# heavy: B4 heavy with G239D
# light: not shown
# notes: EU numbering; copies: 2 + 2
# B13: IL6R-BP243/IL6R-L (antibody, human IgG1, kappa, name in EU numbering)
# heavy: B4 heavy with G239D, H270D, A328K, K332R
# light: not shown
# notes: EU numbering; copies: 2 + 2
# B14: IL6R-BP184/IL6R-L (antibody, human IgG1, kappa, name in EU numbering)
# heavy: B4 heavy with Y236L, A328K
# light: not shown
# notes: EU numbering; copies: 2 + 2
# B15: IL6R-BP206/IL6R-L (antibody, human IgG1, kappa, name in EU numbering)
# heavy: B4 heavy with Y236L, A328K, K332R
# light: not shown
# notes: EU numbering; copies: 2 + 2
# B16: IL6R-BP192/IL6R-L (antibody, human IgG1, kappa, name in EU numbering)
# heavy: B4 heavy with Y236L, H270D, Y298D, A328K
# light: not shown
# notes: EU numbering; copies: 2 + 2
# B17: IL6R-BP504/IL6R-L (antibody, human IgG1, kappa, name in EU numbering)
# heavy: B4 heavy with Y236L, G239D, V266I, S269A, H270E, E274P, A328K, K332A
# light: not shown
# notes: copies: 2 + 2
# B18: IL6R-BP200/IL6R-L (antibody, human IgG1, kappa, name in EU numbering)
# heavy: B4 heavy with G239D, A328D, K332R
# light: not shown
# notes: EU numbering; copies: 2 + 2
# B19: IL6R-BP447/IL6R-L (antibody, human IgG1, kappa, name in EU numbering)
# heavy: B4 heavy with Y236L, G239D, S269A, H270E, A328K, K332R, P398A
# light: not shown
# notes: copies: 2 + 2
# B20: IL6R-BP193/IL6R-L (antibody, human IgG1, kappa, name in EU numbering)
# heavy: B4 heavy with Y236L, H270D, A328K
# light: not shown
# notes: EU numbering; copies: 2 + 2
# B21: IL6R-BP199/IL6R-L (antibody, human IgG1, kappa, name in EU numbering)
# heavy: B4 heavy with Y236L, G273P, A328D, K332R
# light: not shown
# notes: EU numbering; copies: 2 + 2
# B22: IL6R-BP190/IL6R-L (antibody, human IgG1, kappa, name in EU numbering)
# heavy: B4 heavy with D235E, Y236L, G239D, H270D, A328K
# light: not shown
# notes: EU numbering; copies: 2 + 2
# B23: IL6R-BP451/IL6R-L (antibody, human IgG1, kappa, name in EU numbering)
# heavy: B4 heavy with Y236L, G239D, S269A, H270E, A328K, K332R, P398G
# light: not shown
# notes: copies: 2 + 2
# What was measured:
# [1] = target: T1, mouse FcγRIV; experiment: SPR (Biacore), method of Reference Example 2
# [2] = target: T2, mouse FcγRI; experiment: SPR (Biacore), method of Reference Example 2
# [3] = target: T3, human FcγRIIa type R (allotype R131) …; experiment: SPR (Biacore), antibody captured, FcγR analyte
# [4] = target: T4, human FcγRIIa type H (allotype H131) …; experiment: SPR (Biacore), antibody captured, FcγR analyte
# [5] = target: T5, FcγRIIb extracellular domain with …; experiment: SPR; KD of IL6R-B3/IL6R-L divided by KD of the variant
# [6] = target: T6, FcγRIIa type R (allotype R131) …; experiment: as above
# [7] = target: T5, FcγRIIb extracellular domain with …; experiment: SPR; KD for FcγRIIaH divided by KD for FcγRIIb
# [8] = target: T5, FcγRIIb extracellular domain with …; experiment: SPR; KD for FcγRIIaR divided by KD for FcγRIIb
# [9] = target: T7, FcγRIIa type H (allotype H131) …; experiment: SPR (Biacore), antibody captured, FcγR as analyte
# [10] = target: T9, human FcγRIa extracellular domain with C-terminal His tag (human, UniProt P12314 16-292); experiment: SPR (Biacore), antibody captured, FcγR analyte
# T9 construct: not shown: His tag at the C terminus
# T9 sequence (P12314 16-292): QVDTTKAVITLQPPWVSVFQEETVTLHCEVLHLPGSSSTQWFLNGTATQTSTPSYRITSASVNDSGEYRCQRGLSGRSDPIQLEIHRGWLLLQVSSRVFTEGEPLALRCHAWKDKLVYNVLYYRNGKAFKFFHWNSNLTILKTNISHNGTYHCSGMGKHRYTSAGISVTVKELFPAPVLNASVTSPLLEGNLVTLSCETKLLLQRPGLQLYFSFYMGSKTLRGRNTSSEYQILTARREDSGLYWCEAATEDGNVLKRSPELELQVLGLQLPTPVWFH
# [11] = target: T8, human FcγRIIa type H (allotype H131) …; experiment: SPR (Biacore), captured antibody, FcγR analyte
# [12] = target: T4, human FcγRIIa type H (allotype H131) …; experiment: SPR (Biacore), antibody captured, FcγR analyte; remark: listed apart in the source
binder,measurement,setting,value
B1,binding result,[1],no binding
same,binding result,[2],no binding
B2,binding result,[1],no binding
same,binding result,[2],no binding
B3,binding result,[1],no binding
same,binding result,[2],no binding
B4,Kd,[3],1600 nM
B5,Kd,[4],83000 nM
B6,KD(IIb) OF PARENT POLYPEPTIDE/KD(IIb) OF ALTERED POLYPEPTIDE,[5],1680
same,KD(IIaR) OF PARENT POLYPEPTIDE/KD(IIaR) OF ALTERED POLYPEPTIDE,[6],14.8
same,KD(IIaH)/KD(IIb),[7],865
same,KD(IIaR)/KD(IIb),[8],40.1
same,Kd,[9],1500 nM
B7,Kd,[10],55 nM
same,Kd,[4],95000 nM
B8,Kd,[11],2000 nM
B9,Kd,[12],20000 nM
B10,Kd,[12],7000 nM
B11,Kd,[12],9000 nM
B12,Kd,[10],53 nM
B13,Kd,[12],6000 nM
B14,Kd,[3],1300 nM
B15,Kd,[3],5100 nM
B16,Kd,[10],5.6 nM
B17,KD(IIb) OF PARENT POLYPEPTIDE/KD(IIb) OF ALTERED POLYPEPTIDE,[5],127
same,KD(IIaR) OF PARENT POLYPEPTIDE/KD(IIaR) OF ALTERED POLYPEPTIDE,[6],2.4
same,KD(IIaH)/KD(IIb),[7],658
same,KD(IIaR)/KD(IIb),[8],18.5
same,Kd,[9],15000 nM
B18,Kd,[4],42000 nM
same,Kd,[3],680 nM
B19,Kd,[11],2000 nM
B20,Kd,[10],5.3 nM
B21,Kd,[10],5.4 nM
B22,Kd,[10],53 nM
B23,Kd,[11],2000 nM
